Consider two molecules from patent US20150246949A1, “Desmoglein 2 (DSG2) Binding Proteins and Uses Therefor” (UNIVERSITY OF WASHINGTON THROUGH ITS CENTER FOR …, priority 2012, published 2015).

Experiment [1] relates to Ad3-GFP virus. In words: Competition of Ad3-GFP virus infection on HeLa cells. The experiment is classed as cell-based, adenovirus serotype 3 (Ad3). Particulars: HeLa cells pre-incubated with knob, 100 pfu/cell Ad3-GFP, GFP at 18 hours. The method, then: FIG. 3. Competition of Ad3 virus by dimerized Ad3 knob mutants. A) Relative attachment of ^3H-labeled Ad3 virus in the presence of dimeric fiber knob mutants. 1.8×10^5 HeLa cells were incubated with Ad3 knob mutants at a concentration of 2.5 and 100 μg/ml on ice for 1 hour. Then 400 pfu/cell of ^3H-Ad3 virus was added on ice for another hour. Unbound virus particles were washed away. Attachment of virus particles incubated with PBS was taken as 100%. N=3. B) Competition of Ad3-GFP virus infection on HeLa cells. 1.5×10^5 HeLa cells were seeded into 24 well plates. Cells were incubated with the Ad3 knob mutants at increasing concentrations for one hour at room temperature. 100 pfu/cell of Ad3-GFP virus were then added and GFP expression was analyzed 18 hours later by flow cytometry. Left panel: percentage of GFP positive cells. Right panel: mean fluorescence intensity. N=3. The standard deviation was less than 10%. C) Relative attachment of ^3H-labeled Ad3 virus in the presence of dimeric fiber knob mutants with multiple mutations. The study was performed as described in […]) The standard deviation was less than 10%. D) Competition of Ad3-GFP virus infection on HeLa cells. The study was performed as described in C) The standard deviation was less than 10%.
FIG. 9. Analysis of dimeric Ad3 fiber knob mutants with increased affinity to DSG2. A) Competition of Ad3-GFP virus infection on HeLa cells with dimeric affinity-enhanced mutant Y250F and JO-1 (dimeric wt Ad3 fiber knob). The experimental setting is as described for FIG. 3C. left panel: percentage of GFP positive cells. Right panel: mean fluorescence intensity. N=3. The standard deviation was less than 10%. […] 100 pfu/cell of Ad3GFP virus were then added and GFP expression was analyzed 18 hours later. […]
Competition studies were performed on HeLa cells, which express DSG2 (42). […] Transduction was measured based on GFP expression (FIG. 3B). […] Dimeric Ad3 knob mutants with combined mutations were also analyzed for their ability to compete with Ad3 virus for attachment (FIG. 3C) and infection (FIG. 3D).

In experiment [2] the test system is MDA-MB-231 orthotopic TNBC tumors. In words: Enhancement of nab-paclitaxel/cetuximab therapy in triple negative breast cancer model. Particulars: 2 mg/kg i.v. 1 hour before cetuximab 10 mg/kg i.p. and nab-paclitaxel 5 mg/kg i.v., weekly; N=10. The experiment is classed as in vivo, CB17 SCID-beige mice. As for the experimental part:
FIG. 10. Combination of affinity-enhanced JO-1 versions with chemotherapy. A) Enhancement of irinotecan (I) therapy. The experimental setting was the same as in FIG. 5B. […] N=5. […] Mammary fat pad tumors were established from primary ovarian cancer ovc316 cells. Treatment was started when tumors reached a volume of 100 mm^3 Mice were injected intravenously with 2 mg/kg JO-1 or with 0.5 mg/kg JO-4, followed by an intravenous injection of PEGylated liposomal doxorubicin (PLD) (1 mg/kg) one hour later. Treatment was repeated weekly. […] A total of 4×10^6 TNBC MDA-MB-231 cells were injected into the mammary fat pad of CB17 SCID-beige mice. JO-4 (2 mg/kg) was intravenously injected 1 hour before the application of cetuximab (C) (10 mg/kg, i.p.) and nab-paclitaxel (nab-P) (5 mg/kg, i.v). Treatment was given weekly. N=10 P<0.01 at day 25 for nab-P+C vs JO-4+nab-P+C.
A549, MDA-MB-231, and ovc316 xenograft tumors were established by injection of the corresponding tumor cells into the mammary fat pad (1:1 with Matrigel) of CB17 mice. TC1-DSG2 tumors were established by subcutaneous injection of TC1-DSG2 cells into DSG2 transgenic mice. […] Tumor volumes were measured three times a week. […]

“Also recorded” adds a separate entry of the source.

B1: D261N (protein)
chain: MKVSALKEKVSALKEKVSALKEKVSALKEKVSALKEGSGGGSGGGSGGGSNSIALKNNTLWTGPKPEANCIIEYGKQNPDSKLTLILVKNGGIVNGYVTLMGASDYVNTLFKNKNVSINVELYFDATGHILPDSSSLKTDLELKYKQTADFSARGFMPSTTAYPFVLPNAGTHNENYIFGQCYYKASNGALFPLEVTVMLNKRLPDSRTSYVMTFLWSLNAGLAPETTQATLITSPFTFSYIREDD
As to B1, the “Competition of Ad3-GFP infection based on GFP expression” value in experiment [1] is reported as “least reduced”.

B2: JO-4 (protein)
chain: MKVSALKEKVSALKEKVSALKEKVSALKEKVSALKEGSGGGSGGGSGGGSNSIALKNNTLWTGPKPEANCIIEYGKQNPDSKLTLILVKNGGIVNGYVTLMGASDYVNTLFKNKNVSINVELYFDATGHILPDSSSLKTDLELKYKQTADFSARGFMPSTTAYPFVLPNAGTHNENFIFGQCYYKASDGALFPLEVTVMLNKRLPDSRTSYVMTFLWSLNAGLAPETTQATLITSPFTFSYIREDD
Consider B2, for which the “Enhancement of nab-paclitaxel/cetuximab therapy” value in experiment [2] is listed as “significantly increased nab-paclitaxel/cetuximab therapy; also recorded: enhances therapy”.
